According to article PMC8163392, “Interrogating surface versus intracellular transmembrane receptor populations using cell-impermeable SNAP-tag substrates†” (Chemical Science, 2020):

Target: the molecule itself
Assay: single molecule pulldown (SiMPull) with counting of photobleaching steps; surface receptors labelled on live cells with 1 uM SBG-JF549; cells lysed in 1.2% IGEPAL, lysate diluted in 0.1% IGEPAL; receptors captured at low density by biotinylated anti-HA antibody on NeutrAvidin/PEG coverslips; TIRF imaging

B1: HA-SNAP-metabotropic glutamate receptor 2 (receptor, UniProt P31421 19-872, looked up)
chain: EGPAKKVLTLEGDLVLGGLFPVHQKGGPAEECGPVNEHRGIQRLEAMLFALDRINRDPHLLPGVRLGAHILDSCSKDTHALEQALDFVRASLSRGADGSRHICPDGSYATHSDAPTAVTGVIGGSYSDVSIQVANLLRLFQIPQISYASTSAKLSDKSRYDYFARTVPPDFFQAKAMAEILRFFNWTYVSTVASEGDYGETGIEAFELEARARNICVATSEKVGRAMSRAAFEGVVRALLQKPSARVAVLFTRSEDARELLAATQRLNASFTWVASDGWGALESVVAGSERAAEGAITIELASYPISDFASYFQSLDPWNNSRNPWFREFWEERFHCSFRQRDCAAHSLRAVPFEQESKIMFVVNAVYAMAHALHNMHRALCPNTTHLCDAMRPVNGRRLYKDFVLNVKFDAPFRPADTDDEVRFDRFGDGIGRYNIFTYLRAGSGRYRYQKVGYWAEGLTLDTSFIPWASPSAGPLPASRCSEPCLQNEVKSVQPGEVCCWLCIPCQPYEYRLDEFTCADCGLGYWPNASLTGCFELPQEYIRWGDAWAVGPVTIACLGALATLFVLGVFVRHNATPVVKASGRELCYILLGGVFLCYCMTFVFIAKPSTAVCTLRRLGLGTAFSVCYSALLTKTNRIARIFGGAREGAQRPRFISPASQVAICLALISGQLLIVAAWLVVEAPGTGKETAPERREVVTLRCNHRDASMLGSLAYNVLLIALCTLYAFKTRKCPENFNEAKFIGFTMYTTCIIWLAFLPIFYVTSSDYRVQTTTMCVSVSLSGSVVLGCLFAPKLHIILFQPQKNVVSHRAPTSRFGSAAPRASANLGQGSGSQFVPTVCNGREVVDSTTSSL
modifications: JF549 (two-colour experiment: JF549 or JF646) covalently attached to the SNAP-tag
notes: metabotropic glutamate receptor 2 (mGluR2), class C GPCR; The rat receptor is my surmise; also called HA-SNAP-mGluR2; SNAP-mGluR2; source: HEK 293T, transfected, in lysate (1.2% IGEPAL); not shown: SNAP-tag, N-terminal, kept
With B1 the “stoichiometry N” value was 2.
